Four molecules from publication PMC8017925, “Structural basis for differential recognition of phosphohistidine-containing peptides by 1-pHis and 3-pHis monoclonal antibodies” (Proceedings of the National Academy of Sciences of the …, 2021) can be followed below.

The target in assay [1] is T1, ACLY peptide, 3-pHis form.
T1 sequence (peptide, biotin on the N-terminus; C-terminal amide; 3-phosphohistidine at position 5): VQFGHAGAC
Briefly: BLI; biotinylated pHis peptides (20 nM) on streptavidin biosensors, Fab in solution at varying concentrations; 50 mM Hepes pH 8.0, 150 mM NaCl, 0.05% Tween-20, 0.2% BSA; Octet RED96e; global fit to a 1:1 Langmuir model. In general terms: In BLI a coated tip is dipped into the sample, and binding shifts an interference pattern.

The target of assay [2] is T2, Common-His peptide, 3-pHis form.
T2 sequence (peptide, biotin on the N-terminus; C-terminal amide; 3-phosphohistidine at position 5): GEQLHDLNA
The assay is described as above.

For assay [3], the target named is T3, NM23 peptide, 3-pHis form.
T3 sequence (peptide, biotin on the N-terminus; C-terminal amide; 3-phosphohistidine at position 5): RNIIHGSDS
The assay is described as above.

Substrate in assay [4]: SCS peptide, 3-pHis form
The assay is described as above.

Assay [5] concerns the target T4, ACLYana-3-pHis peptide (AGAG-3-pHis-AGAG).
T4 sequence (peptide, 3-phosphohistidine at position 5; biotin on the N-terminus): AGAGHAGAG
Briefly: BLI; N-terminally biotinylated peptides (20 nM) on streptavidin biosensors, varying concentrations of Fab in solution; 50 mM Hepes pH 8.0, 150 mM NaCl, 0.05% Tween-20, 0.2% BSA; association 120 s, dissociation 200 s; global fit to a 1:1 Langmuir model; Octet RED96e; in triplicate.

The target of assay [6] is ACLYana-3-pTza peptide (AGAG-3-pTza-AGAG). Described as above.
The target is the same in assay [7]. Nature of the assay: BLI binding kinetics of 3-pHis Fabs with cognate pTza peptide. The settings on record: triplicate; for Kd: BLI Octet RED96e, N-terminally biotinylated peptide (20 nM) on streptavidin biosensors, varying Fab concentration, 50 mM Hepes pH 8.0, 150 mM NaCl, 0.05% Tween-20, 0.2% BSA, association 120 s, dissociation 200 s, global fit 1:1 Langmuir; for ka / kd: BLI, immobilized biotinylated ACLYana-3-pTza, 1:1 Langmuir global fit. The method, then:
(§1) Biolayer interferometry (BLI) studies were performed to determine the relative affinity of pHis Fabs to in situ phosphorylated His peptides versus the phosphomimetic substrates. The N-terminally biotinylated peptides were immobilized on streptavidin biosensors and the rate of association (ka) and dissociation (kd) were determined by varying the pHis Fab concentration. Equilibrium dissociation constants (KD) were determined by fitting the experimental data to a 1:1 Langmuir binding model. ACLYana-1-pTza and ACLYana-3-pTza peptides were used to determine affinity to 1-pHis and 3-pHis Fabs, respectively (Fig. 3 A–E and Table 1). […] The two isomers were separated from each other by passing the reaction through affinity columns containing 1-pHis mAbs using SC1-1 or SC50-3 IgGs or 3-pHis mAbs using SC39-4, SC44-8, and SC56-2 IgGs. The eluates thus contained either predominantly 1-pHis or 3-pHis peptides. These peptides were used to determine the affinity to their respective isomer class of pHis Fabs (Fig. 3 F–J, Table 1, and SI Appendix, Fig. S5). […] This experimental observation is well supported by the higher number of hydrogen bonds that support the SC44-8:3-pTza interaction compared to other pHis Fabs (SI Appendix, Table S5). […] There are at least three reasons for the lower affinity of the mAbs for pHis peptides compared to pTza peptides: The continuous hydrolysis of phosphate from the pHis peptides during the course of the experiment (SI Appendix, Fig. S6), a reduction in the number of hydrogen bond interactions due to one less nitrogen in the imidazole ring compared to triazolyl ring (Fig. 4 and SI Appendix, Fig. S8), and inherently different electronic properties of the imidazole and triazolyl rings in His and Tza, respectively ([20]).
(§2) Fig. 3. Binding kinetics of pHis Fabs with cognate pTza and pHis peptides. BLI studies of immobilized peptides (ACLYana-1/3-pTza and phosphorylated ACLYana) with varying concentrations of the pHis Fabs were carried out in triplicate on an Octet Red96e instrument (FortéBio). SC1-1 (A) and SC50-3 (B) pHis Fab interaction with their ACLYana-1-pTza peptides. SC39-4 (C), SC44-8 (D), and SC56-2 (E) pHis Fabs interactions with ACLYana-3-pTza peptides. SC1-1 (F), SC50-3 (G), SC39-4 (H), SC44-8 (I), and SC56-2 (J) pHis Fabs interactions with their affinity-purified ACLYana-pHis peptides are represented, Right. The experimental data are represented in the black dashed lines and the nonlinear least-squares fitting was represented in the red continuous lines. The χ^2 for the goodness of fit is under 1.0 for the all the plots.
(§3) The binding kinetics of pHis Fabs with the peptides (pTza and pHis) were evaluated with an Octet RED96e (FortéBio). Streptavidin-coated biosensors (FortéBio) were presoaked in buffer containing 50 mM Hepes pH 8.0, 150 mM NaCl, 0.05% Tween-20, and 0.2% BSA for 15 min. The biotinylated pTza peptides or pHis peptides (20 nM) with and without phosphoramidate treatment were coated onto these streptavidin biosensors and analyzed for their binding to varying concentrations of the pHis Fabs with an association time of 120 s and dissociation time of 200 s. The entire set of experiments was repeated three times. The data were analyzed using the Octet software (FortéBio) and the rates of association and dissociation were obtained by global fitting data to the 1:1 Langmuir interaction model.

For assay [8], the system named is ACLYana-3-pHis peptide (AGAG-3-pHis-AGAG). Nature of the assay: BLI binding kinetics of 3-pHis Fabs with affinity-purified pHis peptide. The conditions noted are these: for ka / kd / Kd: BLI, 1:1 Langmuir global fit, triplicate; for ka / kd: affinity-purified ACLYana-3-pHis peptide; for Kd: ACLYana phosphorylated with phosphoramidate (8 h, 23 °C), 3-pHis isomer affinity-purified on 3-pHis IgG column, immobilized on streptavidin biosensors, Hepes pH 8.0; for affinity for 3-pHis peptides, times (fold) weaker than for the 3-pTza peptide: ratio of BLI KD, 3-pHis versus 3-pTza peptide. The protocol: as §1, §2
as §3, with “model. […]” for “model.”
Peptides used in the DSF and BLI experiments were synthesized by the Salk Peptide Synthesis Core. These peptides were N-terminally biotinylated and C-terminally amidated. They were synthesized using standard Fmoc chemistry on a Gyros Protein Technologies Tribute peptide synthesizer with UV monitoring. Following the deprotection, peptides were analyzed by mass spectrometry and analytical HPLC by the Proteomics Core at Salk. The peptides were HPLC purified to 99% purity by 21st Century Biochemicals, Inc. The Fmoc-pTza’s were synthesized at 10 g scale for incorporation into the peptides. […]

B1: SC56-2 Fab (Fab, V domains shown)
VH: QSVEESEGGLIKPGGILTLTCTASGFSLSSYGFSWVRQAPGKGLEHIGYLHANGRAYYATWAKSRSTITRNTNLNTVTLQLTSLTAADTATYFCAKIGSVSDVAIWGPGTLVTISS
VL: DMTQTPSSTSAAVGGTVTINCQSSESIYNNKNLAWYQQKPGQSPRRLIYSISTLASGVSSRFKGSGSGTQFTLTISDVQCDDAATYYCVGYYYSGGYYYSGSAAYYAFGGGTEVVVK
Turning to B1, the Kd (usually the concentration at which binding is half-saturated) was 3.01 µM in assay [1]; 3.6 µM in assay [2]; 5.7 µM in assay [3]; 6.2 µM in assay [4]; 2.42 µM in assay [5]; 0.0966 µM in assay [6]. Moreover, the koff – broadly, the rate constant with which the complex falls apart – in assay [1] worked out at 0.15 s⁻¹; in assay [2] it was 0.127 s⁻¹; in assay [3] it was 0.126 s⁻¹; in assay [4], 0.136 s⁻¹; in assay [5] it was 0.183 s⁻¹; in assay [6], 0.00939 s⁻¹. Besides, the kon – broadly, the rate constant with which the complex forms – in assay [1] came out at 50100 M⁻¹ s⁻¹; in assay [2], 35600 M⁻¹ s⁻¹; in assay [3], 22200 M⁻¹ s⁻¹; in assay [4] it was 22000 M⁻¹ s⁻¹; in assay [5], 75600 M⁻¹ s⁻¹; in assay [6], 97300 M⁻¹ s⁻¹.

B2: SC56-2: Fab of rabbit 3-pHis-specific monoclonal antibody (antibody, V domains shown)
VH: B1 VH
VL: B1 VL
As to B2, in assay [7], the Kd amounted to 0.0966 µM, the ka is 97300 ± 1110 M⁻¹ s⁻¹ and the kd was found to be 0.00939 ± 1.78e-05 s⁻¹. For the same molecule, in assay [8], the ka came out at 75600 ± 2170 M⁻¹ s⁻¹; the kd turned out to be 0.183 ± 0.00181 s⁻¹; binding was put at a Kd of 2.42 µM; the “affinity for 3-pHis peptides, times (fold) weaker than for the 3-pTza peptide” value lay within 10 to 25 times.

B3: SC39-4 Fab (Fab, V domains shown)
VH: QSVEESGGRLVTPGGSLTLTCTVSGFSLSRYNMGWVRQAPGKGLEWIGWIPFRGSLKYATWATGRFTISRTSTTVDLRMTGLTAADTATYFCVRSSDGFDLWGPGTLVTISS
VL: DMTQTPASVEAVVGGTVTIKCQASRDTGDGLIWYQQKPGQPPKRLIYKASTVASGVPSRFKGRGSGTDFTLTISDLECADAATYYCHSNFYNRWTYGNAFGGGTEVVVK
B3: the Kd worked out at 1.42 µM in assay [1]; 3.29 µM in assay [2]; 2.35 µM in assay [3]; 2.32 µM in assay [4]; 0.799 µM in assay [5]; 0.067 µM in assay [6]. In addition, the koff in assay [1] amounted to 0.0243 s⁻¹; in assay [2] it was 0.0454 s⁻¹; in assay [3], 0.073 s⁻¹; in assay [4], 0.0521 s⁻¹; in assay [5] it was 0.117 s⁻¹; in assay [6], 0.011 s⁻¹. Besides, the kon in assay [1] is 72200 M⁻¹ s⁻¹; in assay [2], 13800 M⁻¹ s⁻¹; in assay [3], 51400 M⁻¹ s⁻¹; in assay [4] it was 22400 M⁻¹ s⁻¹; in assay [5] it was 147000 M⁻¹ s⁻¹; in assay [6] it was 164000 M⁻¹ s⁻¹.

B4: SC39-4: Fab of rabbit 3-pHis-specific monoclonal antibody (antibody, V domains shown)
VH: B3 VH
VL: B3 VL
As for B4, in assay [7], binding was put at a Kd of 0.067 µM, the ka worked out at 164000 ± 1060 M⁻¹ s⁻¹ and the kd turned out to be 0.011 ± 1.6e-05 s⁻¹. In addition, in assay [8], the ka was 147000 ± 5780 M⁻¹ s⁻¹; the kd stood at 0.117 ± 0.0016 s⁻¹; binding was characterised by a dissociation constant (Kd) of 0.799 µM; the “affinity for 3-pHis peptides, times (fold) weaker than for the 3-pTza peptide” value lay in the range of 10 to 25 times.
